{"source": "paper doi:10.1101/2021.03.01.433427", "about": "(bioRxiv, 2021)", "target": "the molecule itself", "assay": "solid state NMR"}
{"protein": "His-tagged TDP-43-LC (low complexity domain of the TAR DNA-binding protein 43, residues 262-414) (domain or fragment) PKHNSNRQLERSGRFGGNPGGFGNQGGFGNSRGGGAGLGNNQGSNMGGGMNFGAFSINPAMMAAAQAALQSSWGMMGMLASQQNQSGPSGNNQNQGNMQREPNQAFGSGNNSYSGSNSGAAIGWGSASNAGSGSGFNGGFGSSMDSKSSGWGM", "values": [{"measurement": "binding result", "value": "binds"}]}
